For this assay, the target named is EphA7 full-length isoform with hemagglutinin tag (EphA7-FL-HA) (UniProt Q61772-1 28-998). Kind of assay: cell-based or functional assay.
Chain of EphA7 full-length isoform with hemagglutinin tag (EphA7-FL-HA) (Q61772 28-998): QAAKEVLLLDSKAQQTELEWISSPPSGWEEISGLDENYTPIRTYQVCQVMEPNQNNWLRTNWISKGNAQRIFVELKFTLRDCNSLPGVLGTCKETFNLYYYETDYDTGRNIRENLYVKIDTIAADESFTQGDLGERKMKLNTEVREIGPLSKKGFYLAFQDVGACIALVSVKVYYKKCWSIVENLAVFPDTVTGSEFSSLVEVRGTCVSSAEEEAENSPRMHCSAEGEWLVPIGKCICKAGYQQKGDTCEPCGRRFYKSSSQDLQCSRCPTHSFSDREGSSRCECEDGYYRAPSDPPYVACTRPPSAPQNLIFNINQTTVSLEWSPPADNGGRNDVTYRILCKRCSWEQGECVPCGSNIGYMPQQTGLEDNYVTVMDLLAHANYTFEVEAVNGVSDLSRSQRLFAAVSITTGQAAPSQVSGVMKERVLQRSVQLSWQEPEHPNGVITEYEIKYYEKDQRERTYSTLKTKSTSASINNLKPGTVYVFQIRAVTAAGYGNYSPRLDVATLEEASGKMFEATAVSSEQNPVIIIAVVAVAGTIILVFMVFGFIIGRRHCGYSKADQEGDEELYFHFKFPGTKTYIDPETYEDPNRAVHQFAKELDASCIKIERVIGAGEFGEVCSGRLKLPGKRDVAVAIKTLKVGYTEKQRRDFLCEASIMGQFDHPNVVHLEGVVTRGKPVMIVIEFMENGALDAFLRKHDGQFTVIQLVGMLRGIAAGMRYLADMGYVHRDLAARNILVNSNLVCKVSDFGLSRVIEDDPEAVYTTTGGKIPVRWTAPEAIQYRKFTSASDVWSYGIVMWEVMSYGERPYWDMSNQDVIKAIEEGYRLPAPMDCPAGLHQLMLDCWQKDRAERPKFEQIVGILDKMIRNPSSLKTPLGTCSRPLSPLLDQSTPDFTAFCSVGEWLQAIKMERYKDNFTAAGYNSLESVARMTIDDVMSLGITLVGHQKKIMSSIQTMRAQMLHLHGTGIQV

B1: EphA7 truncated isoform with myc tag (EphA7-T1-myc) (receptor)
chain: not shown
On to B1, for which the “EphA7-FL tyrosine phosphorylation (phospho-tyrosine over total HA after HA IP) in HEK cells stimulated with clustered ephrin-A5-hFC, at EphA7-T1:FL ratios 1:1 (65%) and 5:1 (42%) compared to 0.2:1” value is 65 % of EphA7-FL tyrosine phosphorylation compared to a ratio of 0.2:1.

The values are drawn from article PMC7717530, “EphA7 isoforms differentially regulate cortical dendrite development” (PLoS ONE, 2020).
